{"source": "paper PMC7617805", "about": "“Mechanism of DNA capture by the MukBEF SMC complex and its inhibition by a viral DNA mimic” (Cell, 2025)", "key": {"[1]": {"target": "the molecule itself", "assay": "cryo-EM structure; E. coli MukEF 1 uM with 4 uM gp5.9 in 20 mM Tris, 200 mM NaCl, 0.5 mM TCEP, 0.05 % β-octyl glucoside, pH 7.4; focused refinement on gp5.9/MukE"}, "[2]": {"target": "the molecule itself", "assay": "cryo-EM structure; wild-type P. thracensis MukBEF dimers 150 nM with nicked plasmid pFB526, 5 mM ATP, 10 mM MgCl2, optionally Na3VO4 or BeSO4/NaF; datasets pooled; open-gate and DNA capture states"}}, "data": [{"protein": "T7 gp5.9 (untagged after cleavage, from insect cells) (natural protein, bacteriophage T7, gp5.9 of bacteriophage T7; Used as 'gp5.9 dimers' in SEC; source: Hi5 insect cells, purified (Talon, 3C cleavage, HisTrap flowthrough, MonoQ)) MSRDLVTIPRDVWNDIQGYIDSLERENDSLKNQLMEADEYVAELEEKLNGTS", "values": [{"measurement": "stoichiometry N", "setting": "[1]", "result": 2}]}, {"protein": "P. thracensis MukB, wild type, as subunit of the MukBEF complex used for cryo-EM (natural protein, Photorhabdus thracensis, UniProt A0A0F7LRY2 1-1482, looked up, MukB of Photorhabdus thracensis; the MukB chain of m14; also called κ-MukB; ν-MukB; source: E. coli BL21-Gold(DE3), polycistronic pFB403, purified as the MukBEF complex; not shown: His6-SUMO, N-terminal, cleaved) MIERGKFRSLTLVNWNGFFARTFDLDELVTTLSGGNGAGKSTTMAAFVTALIPDLTLLHFRNTTEAGATSGSRDKGLHGKLRAGVCYSTLDVINSRHQRVVVGVRLQQVAGRDRKVDIKPFMIQGLPTAIQPTQLLTENVGERQARVLPLNELKDRLDEMEGVQFKQFNSITDYHAQMFDLGVIPKRLRSASDRSKFYRLIEASLYGGISSAITRSLRDYLLPENSGVRKAFQDMEAALRENRITLEAIRVTQSDRDLFKHLITEATSYVSADYMRHANERRTHLDEALALRGELFGSHKQLATEQYRHVEMARELAEQSGASSDLETDHQAASDHLNLVQTAMRQQEKIDRYQVDLEELSYRLEEQTDVVEEAGELQAEYEARTEATEQEVDELKSQLADYQQALDVQQTRAIQYQQALQALERARELCRLPDLSVDNAEEWLETFQAKEQQATEALLALEQKLSVADAAHNQFEQAYQLVKNIVGETSRSEAWQSARELLRDWPSQRHLADRVQPLRMRLSELEQRLNNQQNAERLLSEFCKRQGRQYQAEDLEALQNELEARQEALSLSVNEGGERRMEMRQELEQLKQKIQSLTARAPVWLAAQDTLNQLCEQSGETLASSNDVTEYMQQLLEREREATVERDEVAAQKRELEKQIERLSQPSGAEDSRMIALAERFGGVLLSEIYDDITIDDAPYFSALYGPARHGIVVPDLSLVRPHLETLEDCPEDLYLIEGDPQSFDDSVFNAEEQTNAVLVKSSDRQWRYSRYPELPLFGRAARENRLEALNLERDALAERYATLSFDVQKIQRAHQAFSQFVGKHLSVAFDTDPEAEIRELRQRHTELEREVSRFEDQTQQQRQQYAQAKESLTTLNRLIPQVTLLLDETLIDRVEEVREEMDEAQEAARFLQQHGSALTKLEPMVAVLQSDPQQHEQLQQDYETAKHSQHQAKQQAFALVEIVQRRVHFSYSDSAGMLSENADLNDKLRQRLEHAESDRSRAREQLRQQQAQYSQFNQVLASLKSSYETKQDMLKELLQEMKDIGVQADANAEMRARERRDRLHEALSVNRSRVNQLEKQIAFCEAEMENVQKKLRKLERDYYQIREQVVSAKAGWCAVMRMVKDNGVERRLHRRELAYMEGGALRSMSDKALGALRLAVADNEHLRDALRLSEDPKRPERKVQFFIAVYQHLRERIRQDIIRTDDPVDAIEQMEIELARLTEELTAREQKLAISSKSVANIIRKTIQREQNRIRMLNQGLQAVSFGQVRGVRLNVNVRESHAILLDVLSEQQEQHQDLFNSQRLTFSEAMAKLYQRLNPQVDMGQRLPQTIGEELLDYRNYLELDVEVNRGSDGWLKAESGALSTGEAIGTGMSILVMVVQSWEEESRRLRGKDISPCRLLFLDEAARLDAKSIATLFELCERLQMQLIIAAPENISPEKGTTYKLVRKVFKNHEHVHVVGLRGFGQDAPATQLISDVTA", "values": [{"measurement": "binding result", "setting": "[2]", "result": "binds"}]}]}
